These results are taken from US20180282402A1 (ATYR PHARMA, published 2018).

First the molecules themselves.
T1: Human HARS (human, UniProt P12081 1-509, limits assumed)
T1 construct: also called human HRS; human histidyl-tRNA synthetase
T1 sequence: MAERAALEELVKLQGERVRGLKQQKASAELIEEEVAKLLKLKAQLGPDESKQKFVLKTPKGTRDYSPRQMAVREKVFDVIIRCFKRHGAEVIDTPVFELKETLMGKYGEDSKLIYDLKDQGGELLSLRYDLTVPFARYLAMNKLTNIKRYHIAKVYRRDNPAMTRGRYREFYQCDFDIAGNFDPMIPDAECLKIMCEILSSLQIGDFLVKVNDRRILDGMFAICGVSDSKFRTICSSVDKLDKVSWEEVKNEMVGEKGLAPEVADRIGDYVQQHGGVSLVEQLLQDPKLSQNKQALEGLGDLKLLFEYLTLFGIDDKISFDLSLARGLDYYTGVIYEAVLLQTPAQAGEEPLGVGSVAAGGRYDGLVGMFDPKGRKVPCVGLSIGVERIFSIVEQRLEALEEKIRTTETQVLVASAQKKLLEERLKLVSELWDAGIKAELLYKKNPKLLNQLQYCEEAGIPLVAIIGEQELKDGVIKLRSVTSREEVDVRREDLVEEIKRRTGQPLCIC

B1: AB04-160 (antibody, V domains shown)
VH: QVQLVESGGGLVKPGGSLRLSCAASGFTFSDYYMTWIRQAPGKGLEWVSYISGSFRYTNYADSVKGRFTISRDNAKNSLYLQMNSLRDEDTAVYFCARYVYQVVAIGDLWGQGTLVTVSS
VL: DIQMTQSPSSVSASVGDRVTITCRASQGISSWLAWYQQKPGRAPKLLIFAASSLQSGVPSRFSGSGSGTHFTLTISSLQPEDFATYYCQQAKSFPYTFGQGTKLEIK
notes: Human; IgG1m(zf) kappa
B2: AB13-259 (IgG1m(zf) kappa) (antibody, V domains shown)
VH: QVQLVESGGGLVKPGGSLRLSCAASGFTFSDYYMSWIRQAPGKGLEWVSYISDKSRYTKYTDSVRGRFTISRDNAKNSLYLQMNSLRAEDTAVYYCARYLYQVIAIADAWGQGTLVTVSS
VL: DIQMTQSPSSVSASVGDRVTITCRASQGISSWLAWFQQKPGKAPKLLIFVASNLESGVPSRFSGSGSGTDFTLTISSLQPEDFATYYCQQAESFPYTFGQGTKLEIK
notes: Human
B3: AB04-121 (antibody, V domains shown)
VH: QVQLVESGGGLVKPGGSLRLSCAASGFTFSDYYMTWIRQAPGKGLEWVSYISGSNAYTDYADSVKGRFTISRDNAKNSLYLQMNSLRDEDTAVYFCARYVYQVVAIGDYWGQGTLVTVSS
VL: DIQMTQSPSSVSASVGDRVTITCRASQGISSWLAWYQQKPGRAPKLLIFAASSLQSGVPSRFSGSGSGTHFTLTISSLQPEDFATYYCQQAKSFPYTFGQGTKLEIK
notes: Human; IgG1m(zf) kappa
B4: AB04-483 (antibody, V domains shown)
VH: QVQLVESGGGLVKPGGSLRLSCAASGFTFSDYYMTWIRQAPGKGLEWVSYISGSNAYTNYADSVKGRFTISRDNAKNSLYLQMNSLRDEDTAVYFCARYVYQVVAIGDYWGQGTLVTVSS
VL: DIQMTQSPSSVSASVGDRVTITCRASQGISSWLAWYQQKPGRAPKLLIFAASSLQSGVPSRFSGSGSGTHFTLTISSLQPEDFATYYCQQAKSFPYTFGQGTKLEIK
notes: Human; IgG1m(zf) kappa
B5: AB04-411 (antibody, V domains shown)
VH: QVQLVESGGGLVKPGGSLRLSCAASGFTFSDYYMTWIRQAPGKGLEWVSYISGSNAYTDYADSVKGRFTISRDNAKNSLYLQMNSLRDEDTAVYFCARYVYQVVAVGDLWGQGTLVTVSS
VL: DIQMTQSPSSVSASVGDRVTITCRASQGISSWLAWYQQKPGRAPKLLIFAASSLQSGVPSRFSGSGSGTHFTLTISSLQPEDFATYYCQQAKSFPYTFGQGTKLEIK
notes: Human; IgG1m(zf) kappa
B6: AB13-147 (antibody, V domains shown)
VH: QVQLVESGGGLVKPGGSLRLSCAASGFTFSDYYMSWIRQAPGKGLEWVSYISDSSRYTKYTDSVRGRFTISRDNAKNSLYLQMNSLRAEDTAVYYCARYLYQVIAIAKSWGQGTLVTVSS
VL: DIQMTQSPSSVSASVGDRVTITCRASQGISSWLAWFQQKPGKAPKLLIFVASNLESGVPSRFSGSGSGTDFTLTISSLQPEDFATYYCQQANSFPYTFGQGTKLEIK
notes: Human; IgG1m(zf) kappa
B7: AB13-166 (antibody, V domains shown)
VH: QVQLVESGGGLVKPGGSLRLSCAASGFTFSDYYMSWIRQAPGKGLEWVSYISDKSRYTKYTPSVRGRFTISRDNAKNSLYLQMNSLRAEDTAVYYCARYLYQVIAIADAWGQGTLVTVSS
VL: DIQMTQSPSSVSASVGDRVTITCRASQGISSWLAWFQQKPGKAPKLLIFVASNLESGVPSRFSGSGSGTDFTLTISSLQPEDFATYYCQQAESFPYTFGQGTKLEIK
notes: Human; IgG1m(zf) kappa
B8: AB04-174 (antibody, V domains shown)
VH: QVQLVESGGGLVKPGGSLRLSCAASGFTFSDYYMTWIRQAPGKGLEWVSYISGSNAYTDYADSVKGRFTISRDNAKNSLYLQMNSLRDEDTAVYFCARYVYQTVAIGDLWGQGTLVTVSS
VL: DIQMTQSPSSVSASVGDRVTITCRASQGISSWLAWYQQKPGRAPKLLIFAASSLQSGVPSRFSGSGSGTHFTLTISSLQPEDFATYYCQQAKSFPYTFGQGTKLEIK
notes: Human; IgG1m(zf) kappa
B9: AB04-276 (antibody, V domains shown)
VH: QVQLVESGGGLVKPGGSLRLSCAASGFTFSDYYMTWIRQAPGKGLEWVSYISGSFAYTDYADSVKGRFTISRDNAKNSLYLQMNSLRDEDTAVYFCARYVYQVVAIGDYWGQGTLVTVSS
VL: DIQMTQSPSSVSASVGDRVTITCRASQGISSWLAWYQQKPGRAPKLLIFAASSLQSGVPSRFSGSGSGTHFTLTISSLQPEDFATYYCQQAKSFPYTFGQGTKLEIK
notes: Human; IgG1m(zf) kappa
B10: AB04-151 (antibody, V domains shown)
VH: QVQLVESGGGLVKPGGSLRLSCAASGFTFSDYYMTWIRQAPGKGLEWVSYISGSFRYTNYADSVKGRFTISRDNAKNSLYLQMNSLRDEDTAVYFCARYVYQVVAIGDYWGQGTLVTVSS
VL: DIQMTQSPSSVSASVGDRVTITCRASQGISSWLAWYQQKPGRAPKLLIFAASSLQSGVPSRFSGSGSGTHFTLTISSLQPEDFATYYCQQAKSFPYTFGQGTKLEIK
notes: Human; IgG1m(zf) kappa
B11: AB04-365 (antibody, V domains shown)
VH: QVQLVESGGGLVKPGGSLRLSCAASGFTFSDYYMTWIRQAPGKGLEWVSYISGSFAYTNYADSVKGRFTISRDNAKNSLYLQMNSLRDEDTAVYFCARYVYQVVAIGDYWGQGTLVTVSS
VL: DIQMTQSPSSVSASVGDRVTITCRASQGISSWLAWYQQKPGRAPKLLIFAASSLQSGVPSRFSGSGSGTHFTLTISSLQPEDFATYYCQQAKSFPYTFGQGTKLEIK
notes: Human; IgG1m(zf) kappa
B12: AB04-380 (antibody, V domains shown)
VH: QVQLVESGGGLVKPGGSLRLSCAASGFTFSDYYMTWIRQAPGKGLEWVSYISGSFRYTNYAPSVKGRFTISRDNAKNSLYLQMNSLRDEDTAVYFCARYVYQVVAIGDLWGQGTLVTVSS
VL: DIQMTQSPSSVSASVGDRVTITCRASQGISSWLAWYQQKPGRAPKLLIFAASSLQSGVPSRFSGSGSGTHFTLTISSLQPEDFATYYCQQAESFPYTFGQGTKLEIK
notes: Human; IgG1m(zf) kappa
B13: AB13-227 (antibody, V domains shown)
VH: QVQLVESGGGLVKPGGSLRLSCAASGFTFSDYYMSWIRQAPGKGLEWVSYISDSSRYTKYTDSVRGRFTISRDNAKNSLYLQMNSLRAEDTAVYYCARYLYQVIAIAKSWGQGTLVTVSS
VL: DIQMTQSPSSVSASVGDRVTITCRASQGISSWLAWFQQKPGKAPKLLIFVASNLESGVPSRFSGSGSGTDFTLTISSLQPEDFATYYCQQAESFPYTFGQGTKLEIK
notes: Human; IgG1m(zf) kappa
B14: AB04-482 (antibody, V domains shown)
VH: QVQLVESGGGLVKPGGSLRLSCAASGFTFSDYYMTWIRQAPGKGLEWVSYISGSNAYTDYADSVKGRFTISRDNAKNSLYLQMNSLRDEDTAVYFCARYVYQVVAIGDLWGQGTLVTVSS
VL: DIQMTQSPSSVSASVGDRVTITCRASQGISSWLAWYQQKPGRAPKLLIFAASSLQSGVPSRFSGSGSGTHFTLTISSLQPEDFATYYCQQAKSFPYTFGQGTKLEIK
notes: Human; IgG1m(zf) kappa
B15: KL31-261 (antibody, V domains shown)
VH: QVQLVQSGAEVKKPGASVKVSCKASGYTFTDYCIGWIRQAPGQGLEWMGDICPGDVYTNDNEKFKDRATMTADTSTSTAYMELSSLRSEDTAVYYCARGEEQLGLRNAMDYWGQGTLVTVSS
VL: DIVMTQSPDSLAVSLGERATINCQSQSVSTSTYNYMHWYQQKPGQPPKLLIKYASNLESGVPDRFSGSGSGTDFTLTISSLQAEDVATYYCQHSWEIPWTFGGGTKVEIK
notes: Humanized; IgG1m(zf) kappa
B16: KL31-131 (antibody, V domains shown)
VH: QVQLVQSGAEVKKPGASVKVSCKASGYTFTDYCIGWIRQAPGQGLEWMGDICPGDTYTNDNEKFKDRATMTADTSTSTAYMELSSLRSEDTAVYYCARGEEQLGLRNAMDYWGQGTLVTVSS
VL: EIVLTQSPATLSLSPGERATLSCQSQSVSTSTYNYMHWYQQKPGQAPRLLIKYASNLESGIPDRFSGSGSGTDFTLTISRLEPEDFATYYCQHSWEIPWTFGGGTKVEIK
notes: Humanized; IgG1m(zf) kappa
B17: KL31-523 (antibody, V domains shown)
VH: QVQLVQSGAEVKKPGASVKVSCKASGYTFTDYCIGWIRQAPGQGLEWMGDICPGDAYTNDNEKFKDRATMTADTSTSTAYMELSSLRSEDTAVYYCARGEEQVGLRNAMDYWGQGTSVTVSS
VL: DIVMTQSPDSLAVSLGERATINCQSQSVSTSTYNYMHWYQQKPGQPPKLLIKYASNLESGVPDRFSGSGSGTDFTLTISSLQAEDVATYYCQHSWEIPWTFGGGTKLEIK
notes: Humanized; IgG1m(zf) kappa
B18: KL31-600 (antibody, human IgG1, V domains shown)
VH: QVQLQQSGAELVRPGSSVRMSCKAVGYTFTDYCIGWIKQRPGHGLEWIGDICPGDAYTNDNEKFKDKATLTADTSSTTAYMQLSSLTSEDSAIYYCARGEEQVGLRNAMDYWGQGTSVTVSS
VL: DIVLTQSPASLAVSLGQRATISCQSQSVSTSTYNYMHWYQQKPGQPPKLLIKYASNLESGVPARFSGSGSGTDFTLNIHPVEEEDTATYYCQHSWEIPWTFGGGTKLEIK
B19: KL31-275 (antibody, IgG1, V domains shown)
VH: QVQLQQSGAELVRPGSSVRMSCKAVGYTFTDYCIGWIKQRPGHGLEWIGDICPGDAYTNDNEKFKDKATLTADTSSTTAYMQLSSLTSEDSAIYYCARGEEQVGLRNAMDYWGQGTSVTVSS
VL: DIVLTQSPASLAVSLGQRATISCQSQSVSTSTYNYMHWYQQKPGQPPKLLIKYASNLESGVPARFSGSGSGTDFTLNIHPVEEEDTATYYCQHSWEIPWTFGGGTKLEIK
notes: Mouse; IgG1 kappa
B20: KL31-313 (antibody, IgG2a, V domains shown)
VH: QVQLQQSGAELVRPGSSVRMSCKAVGYTFTDYCIGWIKQRPGHGLEWIGDICPGDAYTNDNEKFKDKATLTADTSSTTAYMQLSSLTSEDSAIYYCARGEEQVGLRNAMDYWGQGTSVTVSS
VL: DIVLTQSPASLAVSLGQRATISCQSQSVSTSTYNYMHWYQQKPGQPPKLLIKYASNLESGVPARFSGSGSGTDFTLNIHPVEEEDTATYYCQHSWEIPWTFGGGTKLEIK
notes: Mouse; IgG2a kappa

This test concerns the target T1, Human HARS. The test is described as follows: SPR (ProteOn); HRS protein immobilized, antibody as analyte.
As for B1, the affinity, expressed as Kd, was 60 pM.

With B2, the Kd turned out to be 15 pM. This Kd lies about 4-fold lower than the previous one.

As to B3, binding was characterised by a dissociation constant (Kd) of 900 pM.

B4 registered a Kd of 265 pM. Compared with the last molecule, the Kd is about 3.4-fold lower.

In the case of B5, binding was put at a Kd of 1900 pM. Against the preceding molecule, the Kd is about 7.2-fold higher.

B6 came in with an equilibrium dissociation constant (Kd) of 24 pM.

For B7, the dissociation constant Kd is < 1 pM.

As for B8, the affinity, expressed as Kd, was 170000 pM.

B9 gave a Kd of 460 pM.

For B10, the Kd was 25 pM. Compared with the last molecule, the Kd is about 18-fold lower.

The molecule B11 displayed a Kd of 185 pM.

With B12, the Kd is 26 pM.

Regarding B13, the Kd is < 50 pM.

The molecule B14 returned a Kd of 260 pM. This lies in the sub-nanomolar range.

With B15, the affinity, expressed as Kd, was 670 pM. Compared with the last molecule, the Kd is about 2.6-fold higher.

For the molecule B16, the equilibrium dissociation constant (Kd) is 250 pM.

Molecule B17 displayed a Kd of 32500 pM.

Regarding B18, the affinity, expressed as Kd, was 12200 pM.

In turn, B19 registered a dissociation constant Kd of 6790 pM.

The molecule B20 displayed a Kd of 277000 pM.

What is called Kd is the constant that tells how readily two partners part at equilibrium. Low readings indicate a tighter complex, high ones a looser complex.
